The record followed here is patent US20170099813.

What all share (assay): cell_activity
Series [1] deals with ssSRY1.2 TALEN left monomer (artificial). As to conditions: pair with p4; Surveyor day 3, swine fibroblasts.
The test system of series [2] is ssSRY1.3 TALEN left monomer (artificial). To be noted: pair with p6; Surveyor day 3, swine fibroblasts.
The test system of series [3] is ssSRY1.1 TALEN left monomer (artificial). As to conditions: pair with p2; Surveyor day 3, swine fibroblasts; 46.3% HDR with ssODN.
For series [4], the system named is ssSRY1.2 TALEN right monomer (artificial). As to conditions: pair with p3; Surveyor day 3, swine fibroblasts.
Series [5] concerns ssSRY1.1 TALEN right monomer (artificial). To be noted: pair with p1; Surveyor day 3, swine fibroblasts; 46.3% HDR with ssODN.
The subject of series [6] is ssSRY1.3 TALEN right monomer (artificial). As to conditions: pair with p5; Surveyor day 3, swine fibroblasts.

On to “AGAGAACCCTCAAATG (double strand) [ssSRY1.2 left half-site]”, for which the activity in series [1] worked out at 35 % NHEJ. Regarding “CAGCAAGTGGCTGGGA (double strand) [ssSRY1.3 left half-site]”, the activity in series [2] turned out to be 16.2 % NHEJ. With “GAACGCTTTCATTGTG (double strand) [ssSRY1.1 left half-site]”, the activity in series [3] turned out to be 30 % NHEJ. As to “GCAAGTGGCTGGGATGC (double strand) [ssSRY1.2 right half-site]”, the activity in series [4] was 35 % NHEJ. In turn, “GGAGAAAAGTGGCTCT (double strand) [ssSRY1.1 right half-site]” had an activity in series [5] of 30 % NHEJ.

“TTACAGAAGCCGAAA (double strand) [ssSRY1.3 right half-site]”: the activity in series [6] came to 16.2 % NHEJ.
